Measured values from patent US6777540 (dated 2004).

T1: soluble Fas ligand molecule (human Fas ligand released into the supernatant of COS cells transfected with … (human, UniProt P48023 130-281, limits assumed))
T1 sequence (looked up): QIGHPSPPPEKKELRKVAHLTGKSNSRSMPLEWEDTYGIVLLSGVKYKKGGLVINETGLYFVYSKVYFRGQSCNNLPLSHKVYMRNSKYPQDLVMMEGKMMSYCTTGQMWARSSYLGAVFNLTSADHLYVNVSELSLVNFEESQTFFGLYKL

T2: Fas ligand peptide KMMSYCTTGQMWARS (228-242 positions) (human)
T2 construct: Synthetic 15-mer immobilized on a PepSet pin
T2 peptide: KMMSYCTTGQMWARS

T3: Fas ligand peptide YPQDLVMMEGKMMSY (218-232 positions) (human)
T3 construct: Synthetic 15-mer immobilized on a PepSet pin
T3 peptide: YPQDLVMMEGKMMSY

T4: Fas ligand peptide VMMEGKMMSYCTTGQ (223-237 positions) (human)
T4 construct: Synthetic 15-mer immobilized on a PepSet pin
T4 peptide: VMMEGKMMSYCTTGQ


How the values were obtained:
[1] = biological target: T1, soluble Fas ligand molecule (human Fas …); test: cell-based or functional assay
[2] = biological target: T2, Fas ligand peptide KMMSYCTTGQMWARS …; test: PepSet pin ELISA, hybridoma culture supernatant, HRP anti-mouse IgG
Experimental: (§1) (9) After removal of the pins of PepSet from the plate, 50 μl of 2N H_2SO_4 was added to the wells to quench the reaction.
(§2) Thus, it has been shown that the anti-Fas ligand antibody produced by NOK1 and NOK4 hybridomas recognize the region, […]-[…] (SEQ ID NO:139), of Fas ligand, whereas the anti-Fas ligand antibody of NOK2 hybridoma recognizes the region, […]-[…] (SEQ ID NO:140), of Fas ligand.

[3] = biological target: T3, Fas ligand peptide YPQDLVMMEGKMMSY …; test: as above
Experimental: as §1, §2

[4] = biological target: T4, Fas ligand peptide VMMEGKMMSYCTTGQ …; test: as above
Experimental: as §1, §2

Row | Binder | apoptosis inhibition: viable rate of Fas-WR19L target cells with soluble Fas ligand, Alamar Blue fluorescence, 17 h [1] | binding result [2] | binding result [3] | binding result [4]
1 | RNOK201 (humanized NOK2 antibody, RNOK2VHver11 with RNOK2VLver1) (antibody, V domains shown) VH: QVQLVQSGAEVKKPGASVKVSCKASGYTFTNYWIGWVKQAPGQGLEWIGYLYPGGLYTNYNEKFKGKATMTADTSTNTAYMELSSLRSEDTAVYYCARYRDYDYAMDYWGQGTLVTVSS VL: DVVMTQTPSSLSASVGDRASISCKSTKSLLNSDGFTYLGWCQQKPGQSPQLLIYLVSNRFSGVPDRFSGSGSGTDFTLKISSLQPEDIATYYCFQSNYLPLTFGQGTKVEIKR | ≥ 90% |  |  | 
2 | RNOK202 (humanized NOK2 antibody, RNOK2VHver11 with RNOK2VLver21) (antibody, V domains shown) VH: QVQLVQSGAEVKKPGASVKVSCKASGYTFTNYWIGWVKQAPGQGLEWIGYLYPGGLYTNYNEKFKGKATMTADTSTNTAYMELSSLRSEDTAVYYCARYRDYDYAMDYWGQGTLVTVSS VL: DVVMTQTPLSLPVTPGEPASISCKSTKSLLNSDGFTYLGWCLQKPGQSPQLLIYLVSNRFSGVPDRFSGSGSGTDFTLKISRVEAEDVGVYYCFQSNYLPLTFGQGTKLEIKR | ≥ 90% |  |  | 
3 | RNOK203 (humanized NOK2 antibody, RNOK2VHver11 with RNOK2VLver22) (antibody, V domains shown) VH: QVQLVQSGAEVKKPGASVKVSCKASGYTFTNYWIGWVKQAPGQGLEWIGYLYPGGLYTNYNEKFKGKATMTADTSTNTAYMELSSLRSEDTAVYYCARYRDYDYAMDYWGQGTLVTVSS VL: DVVMTQTPLSLPVTLGQPASISCKSTKSLLNSDGFTYLGWCLQKPGQSPQLLIYLVSNRFSGVPDRFSGSGSGTDFTLKISRVEAEDVGVYYCFQSNYLPLTFGQGTKLEIKR | ≥ 90% |  |  | 
4 | NOK2 antibody (mouse anti-Fas ligand monoclonal antibody of hybridoma NOK2, FERM BP-5045) (antibody, V domains shown, Mouse IgG, purified on protein G; kappa light chain; Those are derived from the cloned PCR product and may hold leader or primer residues; also called mouse NOK2 immunoglobulin; NOK2 immunoglobulin) VH: QVHLQQSGAELVRPGTSVKMSCKAAGYTFTNYWIGWVKQRPGHGLEWIGYLYPGGLYTNYNEKFKGKATLTADTSSSTAYMQLSSLTSEDSAIYYCARYRDYDYAMDYWGQGTSVTVSS VL: DVVLTQTPLSLPVNIGDQASISCKSTKSLLNSDGFTYLGWCLQKPGQSPQLLIYLVSNRFSGVPDRFSGSGSGTDFTLKISRVEAEDLGVYYCFQSNYLPLTFGSGTKLEIKR |  | binds | binds | binds
